What is called stoichiometry N is a count of units in the complex or per binding partner. What is called Kd is the free concentration of one partner at which half of the binding sites on the other are occupied at equilibrium, for simple one-to-one binding.

Results on four molecules are retold here after publication PMC3034218 (Journal of molecular biology, 2004).

B1: τ protein (τ subunit of the clamp-loader), B. subtilis, full-length (natural protein, UniProt P09122 1-563, looked up)
chain: MSYQALYRVFRPQRFEDVVGQEHITKTLQNALLQKKFSHAYLFSGPRGTGKTSAAKIFAKAVNCEHAPVDEPCNECAACKGITNGSISDVIEIDAASNNGVDEIRDIRDKVKFAPSAVTYKVYIIDEVHMLSIGAFNALLKTLEEPPEHCIFILATTEPHKIPLTIISRCQRFDFKRITSQAIVGRMNKIVDAEQLQVEEGSLEIIASAADGGMRDALSLLDQAISFSGDILKVEDALLITGAVSQLYIGKLAKSLHDKNVSDALETLNELLQQGKDPAKLIEDMIFYFRDMLLYKTAPGLEGVLEKVKVDETFRELSEQIPAQALYEMIDILNKSHQEMKWTNHPRIFFEVAVVKICQTSHQSAADLPEVDMLMKKIQQLEQEVERLKTTGIKAAAESPKKEAPRVPKGGKSNYKAPVGRIHEILKEATRPDLDLLRNSWGKLLAHLKQQNKVSHAALLNDSEPVAAGSAAFVLKFKYEIHCKMVAEDNNGVRTNLEQILESMLGKRMDLIGVPEAQWGKIREEFLEDHQQENEGSNEPAEEDPLIAEAKKLVGADLIEIKD

Data set [1] addresses τ domain III, B. subtilis (B. subtilis). The data set is described as follows: SEC. (In general: SEC sorts molecules by how far they enter the pores of the column.)
Another data set addresses τ (Escherichia coli) (UniProt P06710). To be noted: cited from earlier work.
The data set “atomic force microscopy” concerns the molecule itself. Nature of the data set: atomic force microscopy.
Data set [2] has as its target B1. Nature of the data set: SPR. A general note: In SPR one partner is held on a chip, and binding of the other changes the refractive index at the surface.

τ (Escherichia coli), sequence (P06710 2-643): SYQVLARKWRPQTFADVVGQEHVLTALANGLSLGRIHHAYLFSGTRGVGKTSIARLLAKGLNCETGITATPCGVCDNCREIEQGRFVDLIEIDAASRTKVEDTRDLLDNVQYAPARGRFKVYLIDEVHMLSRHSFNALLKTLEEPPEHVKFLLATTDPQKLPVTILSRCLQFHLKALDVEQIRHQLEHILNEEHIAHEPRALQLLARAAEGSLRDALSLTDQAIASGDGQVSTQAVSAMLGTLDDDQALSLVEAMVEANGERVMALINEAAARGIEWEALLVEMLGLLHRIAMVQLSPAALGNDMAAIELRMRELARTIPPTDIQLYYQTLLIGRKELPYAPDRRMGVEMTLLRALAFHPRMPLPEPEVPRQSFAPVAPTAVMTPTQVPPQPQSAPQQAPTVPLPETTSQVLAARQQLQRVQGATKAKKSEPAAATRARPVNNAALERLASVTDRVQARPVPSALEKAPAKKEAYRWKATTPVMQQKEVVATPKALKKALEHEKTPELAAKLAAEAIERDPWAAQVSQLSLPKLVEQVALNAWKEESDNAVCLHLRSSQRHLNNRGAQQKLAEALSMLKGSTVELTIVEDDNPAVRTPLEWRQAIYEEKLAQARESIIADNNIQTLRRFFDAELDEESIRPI

Molecule “τ domain III, B. subtilis (domain or fragment)” registered a stoichiometry N in data set [1] of 2.
As to DnaB (from UniProt P0ACB0), the Kd with τ (Escherichia coli) is 4 nM.
On to B1, for which, in the data set “atomic force microscopy”, the binding result is “binds”.

B2: His-tagged DnaB, Bacillus stearothermophilus (enzyme, UniProt Q9X4C9 1-454, looked up)
chain: MSELFSERIPPQSIEAEQAVLGAVFLDPAALVPASEILIPEDFYRAAHQKIFHAMLRVADRGEPVDLVTVTAELAASEQLEEIGGVSYLSELADAVPTAANVEYYARIVEEKSVLRRLIRTATSIAQDGYTREDEIDVLLDEADRKIMEVSQRKHSGAFKNIKDILVQTYDNIEMLHNRDGEITGIPTGFTELDRMTSGFQRSDLIIVAARPSVGKTAFALNIAQNVATKTNENVAIFSLEMSAQQLVMRMLCAEGNINAQNLRTGKLTPEDWGKLTMAMGSLSNAGIYIDDTPSIRVSDIRAKCRRLKQESGLGMIVIDYLQLIQGSGRSKENRQQEVSEISRSLKALARELEVPVIALSQLSRSVEQRQDKRPMMSDIRESGSIEQDADIVAFLYRDDYYNKDSENKNIIEIIIAKQRNGPVGTVQLAFIKEYNKFVNLERRFDEAQIPPGA
Consider B2, for which binding in data set [2] was put at a Kd of 2.3 nM.
